The values below come from patent US20240148892A1 (DUALITY BIOLOGICS SUZHOU, published 2024).

The chains are these.
T1: human full-length B7H3 expressed on MCF-7 cells (human, UniProt Q5ZPR3 29-534)
T1 sequence: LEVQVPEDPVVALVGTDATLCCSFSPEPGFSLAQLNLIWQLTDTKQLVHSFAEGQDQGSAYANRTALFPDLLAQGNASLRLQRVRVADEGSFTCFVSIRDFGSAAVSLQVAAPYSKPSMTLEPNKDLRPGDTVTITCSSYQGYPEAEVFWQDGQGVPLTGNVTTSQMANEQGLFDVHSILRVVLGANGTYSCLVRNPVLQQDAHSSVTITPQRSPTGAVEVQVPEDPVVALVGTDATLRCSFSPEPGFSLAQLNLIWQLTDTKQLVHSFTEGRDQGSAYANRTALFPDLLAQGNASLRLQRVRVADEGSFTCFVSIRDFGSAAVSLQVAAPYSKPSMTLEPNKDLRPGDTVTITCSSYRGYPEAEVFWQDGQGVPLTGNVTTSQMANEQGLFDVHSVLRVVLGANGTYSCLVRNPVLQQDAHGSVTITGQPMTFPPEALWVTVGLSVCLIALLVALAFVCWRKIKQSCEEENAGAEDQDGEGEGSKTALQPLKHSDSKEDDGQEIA

T2: Human B7-H3/CD276 protein, His tag (2IgB7H3) (human, UniProt Q5ZPR3-2 29-245)
T2 construct: Bought protein; 25.2 kDa used in the SPR calculation; also called human 2IgB7H3; ACRO B73-H52E2; not shown: His tag
T2 sequence (looked up): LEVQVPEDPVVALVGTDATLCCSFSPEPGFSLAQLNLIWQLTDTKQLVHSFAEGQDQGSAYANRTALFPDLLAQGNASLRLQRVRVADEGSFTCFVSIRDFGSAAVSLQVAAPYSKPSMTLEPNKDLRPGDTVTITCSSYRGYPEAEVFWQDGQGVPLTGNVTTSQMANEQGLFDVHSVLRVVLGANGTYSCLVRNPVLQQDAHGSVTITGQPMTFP

B1: W301088-1.145.16-xIgG1KV320 (antibody, V domains shown)
VH: DVQLQESGPGLVKPSQSLSLTCTVTDYSITGDYAWNWIRQFPGNKLEWMGYISYSGSTSYNPSLQSRISITRDTSKNQFFLQLNSVTSEDTATYFCARSLGRRWYFVVWGAGTTVTVSA
VL: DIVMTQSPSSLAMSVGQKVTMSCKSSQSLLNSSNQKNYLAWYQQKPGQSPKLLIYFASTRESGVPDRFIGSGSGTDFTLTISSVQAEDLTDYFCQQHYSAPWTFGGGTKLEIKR
B2: Enoblituzumab (MacroGenics) (antibody, V domains shown)
VH: EVQLVESGGGLVQPGGSLRLSCAASGFTFSSFGMHWVRQAPGKGLEWVAYISSDSSAIYYADTVKGRFTISRDNAKNSLYLQMNSLRDEDTAVYYCGRGRENIYYGSRLDYWGQGTTVTVSS
VL: DIQLTQSPSFLSASVGDRVTITCKASQNVDTNVAWYQQKPGKAPKALIYSASYRYSGVPSRFSGSGSGTDFTLTISSLQPEDFATYYCQQYNNYPFTFGQGTKLEIKR
B3: W301088-1.145.16-z3-p1-uIgG1KV320 (antibody, V domains shown)
VH: QVQLQESGPGLVKPSQTLSLTCTVTDYSITGDYAWNWIRQHPGKGLEWIGYISYSGSTSYNPSLQSRVTISRDTSKNQFSLKLSSVTAADTAVYFCARSLGRRWYFVVWGQGTTVTVSS
VL: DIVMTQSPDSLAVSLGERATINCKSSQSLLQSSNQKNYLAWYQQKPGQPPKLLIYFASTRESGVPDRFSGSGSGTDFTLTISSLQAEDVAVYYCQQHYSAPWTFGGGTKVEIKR
notes: Humanized, PTM-removed (VL N027dQ) human IgG1 LALA kappa antibody; also called WBP301088; W301088-z3-p1

The term EC50 denotes the concentration giving half of the maximal effect. The Kd is the concentration at which binding is half-saturated. By koff is commonly meant the first-order rate constant of dissociation. In general, kon refers to the rate constant with which the complex forms.

One test has as its target T1, human full-length B7H3 expressed on …. Nature of the test: cell-based or functional assay.
Take B1: the “Antibody internalization EC50 (nM), MCF-7 cells, high-content imaging” value (“Antibody internalization EC50 (nM)” below) is 0.51 nM.
For the molecule B2, the “Antibody internalization EC50 (nM)” value came out at 1.95 nM.
For B3, the “Antibody internalization EC50 (nM)” value is 0.44 nM.

For the next test the target is unchanged. Description: flow cytometry (FACS) on MCF-7 cells expressing human full-length B7H3. On the procedure: FACS was used to detect the binding of antibodies to human B7H3. This method allows quantitative analysis and identification of specific molecules expressed on the surface of living cells. Unlabeled cells were used as a control to set a threshold before the assay, and the percentage change for each group that exceeded the fluorescence intensity threshold was analyzed. MCF-7 cells expressing human full-length B7H3 (1×10⁵ cells/well) were incubated with various concentrations of antibodies (3.16-fold serially diluted with 1×DPBS/1% BSA from 50 nM to 0.0005 nM) in a volume of 100 μL/well in a refrigerator set to 4° C. for 1 h. Anti-human B7H3 reference antibody enoblituzumab (MacroGeneics) was used as a positive control. Human IgG1 isotype antibody was used as a negative control. After washing the cells with 1×DPBS/1% BSA, Alexa 647 goat anti-human antibody (diluted in a 1:500 ratio in 1×DPBS/1% BSA) was added. The cells were incubated in a refrigerator set to 4° C. for 0.5 h in the dark. The mean fluorescence intensity (MFI) of the cells was measured by a flow cytometry and analyzed by FlowJo. EC₅₀ values were calculated by four-parameter non-linear regression analysis using GraphPad Prism 7 software.
In turn, B1 registered an EC50 of 1.16 nM.
Regarding B2, the EC50 was 2.49 nM.
The same measure, in the same setting: under B3 stands 1.08 nM.

The target of the next test is T2, Human B7-H3/CD276 protein, His tag …. Nature of the test: SPR (Biacore 8K), antibody captured on anti-human Fc IgG, human 2IgB7H3 as analyte, 1:1 model. Here is the method:
(§1) The affinity of antibodies for human 2IgB7H3 was determined using surface plasmon resonance (SPR). The affinity of antibodies for human 2IgB7H3 was determined by Biacore 8K. An activator was prepared by mixing 400 mM EDC and 100 mM NHS (GE) immediately prior to injection into the channel. The CMS sensor chip was activated for 420 seconds with the activator. Goat anti-human Fc IgG (30 μg/mL in 10 mM NaAc, pH 4.5) was then injected into the channel at a flow rate of 10 μL/min for 420 seconds. The chip was deactivated by 1 M ethanolamine hydrochloric acid. The antibodies diluted in running buffer (1×HBS-EP+) were injected into the channel at a flow rate of 10 μL/min for 30 seconds. […] Glycine (10 mM, pH 1.5) was injected as regeneration buffer after the dissociation phase.
The sensorgrams for the reference channel and the buffer channel were subtracted from the test sensorgrams. The experimental data were fitted with a 1:1 binding model. The molecular weight of the human 2IgB7H3 used in the calculation was 25.2 kDa.
(§2) The experimental data were fitted by a 1:1 binding model bundled with the Biacore 8K evaluation software.
In general terms: SPR reads the build-up and loss of mass on a sensor chip optically.
For B1, the dissociation constant Kd is 57.7 nM, the koff came to 0.0136 s⁻¹ and the kon is 235000 M⁻¹ s⁻¹.
Taken in the same sequence, the figures for B2 were 261 nM, 0.0168 s⁻¹ and 64400 M⁻¹ s⁻¹.
Taken in the same sequence, the figures for B3 were 46.4 nM, 0.0141 s⁻¹ and 303000 M⁻¹ s⁻¹.

The next test deals with T3, Cynomolgus monkey B7-H3/CD276 protein, His tag (cynomolgus monkey).
T3 construct: Bought protein; 49 kDa used in the SPR calculation; also called ACRO B73-C52Ha
Description: SPR (Biacore 8K), antibody captured on anti-human Fc IgG, cynomolgus monkey B7H3 as analyte, 1:1 model. On the procedure:
as §1, with “cynomolgus monkey B7H3” for “human 2IgB7H3”
The sensorgrams for the reference channel and the buffer channel were subtracted from the test sensorgrams. […] The molecular weight of the cynomolgus monkey B7H3 used in the calculation was 49 kDa.
as §2
Molecule B1 registered a Kd of 0.0564 nM, a koff of 2.94e-05 s⁻¹ and a kon of 521000 M⁻¹ s⁻¹.
Taken in the same sequence, the figures for B2 were 0.441 nM, 8.14e-05 s⁻¹ and 185000 M⁻¹ s⁻¹.
Taken in the same sequence, the figures for B3 were 0.0574 nM, 3.02e-05 s⁻¹ and 527000 M⁻¹ s⁻¹.
